The DeepSol protein solubility set

Experiment: soluble on expression in E. coli; label from the status in PepcDB or PDB records

Sequence	soluble on expression in E. coli
FESGLDLSDAEPDAGEATAYASKDLEEQLRSVSSVDELMTVLYPEYWKMYKCQLRKGGWQHNREQANLNSRTEETIKFAAAHYNTEILKSIDNEWRKTQCMPREVCIDVGKEFGVATNTFFKPPCVSVYRCGGCCNSEGLQCMNTSTSYLSKTLFEITVPLSQGPKPVTISFANHTSCRCMSKLDVYRQVHSIIRRSLPATLPQCQAANKTCPTNYMWNNHICRCLAQEDFMFSSDAGDDSTDGFHDICGPNKELDEETCQCVCRAGLRPASCGPHKELDRNSCQCVCKNKLFPSQCGANREFDENTCQCVCKRTCPRNQPLNPGKCACECTESPQKCLLKGKKFHHQTCSCYRRPCTNRQKACEPGFSYSEEVCRCVPSYWKRPQMS	not soluble
FKYIQKIAKTEIKREEVPDVKDIISAKKIKIISGIKEVLESGKYADCEKMASDLLEDADPQEVLSAVLKYALKDELS	not soluble
FLDGIDKAQEEHEKYHSNWRAMASDFNLPPVVAKEIVASCDKCQLKGEAMHGQVDCSPGIWQLDCTHLEGKVILVAVHVASGYIEAEVIPAETGQETAYFLLKLAGRWPVKTVHTDNGSNFTSTTVKAACDWAGIKQEDGIPYNPQSQGVIESMNKELKKIIGQVRDQAEHLKTAVQMAVFIHNKKRKGGIGGYSAGERIVDIIATDIQTKELQKQITKIQNFRVYYRDSRDPVWKGPAKLLWKGEGAVVIQDNSDIKVVPRRKAKIIRDYGKQMAGDDCVASRQDED	soluble
FLNTISTKDFKQKMADKTTGFVYVGRPTCEDCQAFQPILKKELEKRQPDQKMAYYNTDKASEKSRDDMIALLKKMDIDSVPTMVYLKDGKVASTYAATDEPAKLTNWMNKVSGEVSE	soluble
FPDPSFIIDAEGRFLDCLTDPETMLTVDDTDTLVGQTLHEFFPHDTADSLLAAVRAALRTGSFQSVEYKLQVPSDKRWFEARVAPLESRAYDPDTVIFVARDI	not soluble
FRVERSQPASQPLTYESGPDEVRAWLEAKAFSPRIVENLGILTGPQLFSLNKEELKKVCGEEGVRVYSQLTMQKAFLEKQQSGSEL	soluble
FRYDNTTPKTLRHVALLLEQGIETNDFYSGLHRRELKQTRLEGYILQHFSIIDGCVGVMKLTSELLAEYDVTANESAAFVNSFSDVE	soluble
FWGVWASEPPHPVLHASHDAAGWRLRGTKAWCSGASMCTHALVTARVDEQPRLFAVDLREPGVTAGRGGWRNPGMAATDTESVTFDGVPARPVGAPDE	not soluble
GAGNYQLAVSTLAKVWKQLHIPDVYDVGAMYFIKTFLHFGVSLLSAGHAWTNPQSFLDNAPLRQTLGKMMPFDGIEPSIASGALQALALTASCYTTGMSVTFFQGEESLGEWTRYQRLGVRERIGLDHLMATAAIPLIFPSVRIGEKFYCDGAVRQLSPLSPALH	not soluble
GAHMVTSNVVLVSGEGERFTVDKKIAERSLLLKNYLNDMGDDDDEDDDEIVMPVPNVRSSVLQKVIEWAEHHRDSNFPDEDDDDSRKSAPVDSWDREFLKVDQEMLYEIILAANYLNIKPLLDAGCKVVAEMIRGRSPEEIRRTFNIVNDFTPEEEAAIRRENEWAEDR	soluble
GALPSHNKASFTDEEDEFILDVVRKNPTRRTTHTLYDEISHYVPNHTGNSIRHRFRVYLSKRLEYVYEVDKFGKLVRDDDGNLIKTKVLPPSIKRKFSADEDYTLAIAVKKQFYRDLFQIDPDTGRSLITDEDTPTAIARRNMTMDPNHVPGSEPNFAAYRTQSRRGPIAREFFKHFAEEHAAHTENAWRDRFRKFLLAYGIDDYISYYEAEKAQNREPEPMKNLTNRPKRPGVPTPGNYNSAAKR	soluble
GAMDPMICLGLEGTAEKTGVGIVTSDGEVLFNKTIMYKPPKQGINPREAADHHAETFPKLIKEAFEVVDKNEIDLIAFSQGPGLGPSLRVTATVARTLSLTLKKPIIGVNHCIAHIEIGKLTTEAEDPLTLYVSGGNTQVIAYVSKKYRVFGETLDIAVGNCLDQFARYVNLPHPGGPYIEELARKGKKLVDLPYTVKGMDIAFSGLLTAAMRAYDAGERLEDICYSLQEYAFSMLTEITERALAHTNKGEVMLVGGVAANNRLREMLKAMCEGQNVDFYVPPKEFCGDNGAMIAWLGLLMHKNGRWMSLDETKIIPNYRTDMVEVNWIKEIKGKKRKIPEHLIGKGAEADIKRDSYLDFDVIIKERVKKGYRDERLDENIRKSRTAREARYLALVKDFGIPAPYIFDVDLDNKRIMMSYINGKLAKDVIEDNLDIAYKIGEIVGKLHKNDVIHNDLTTSNFIFDKDLYIIDFGLGKISNLDEDKAVDLIVFKKAVLSTHHEKFDEIWERFLEGYKSVYDRWEIILELMKDVERRARYVE	soluble
GAMEAIYAYEAQGDDEISIDPGDIITVIRGDDGSGWTYGECDGLKGLFPTSYCK	soluble
GAMGMNGIDDLLNINDRIKQVQNERNELASKLQNLKQSLASNDTGGGSGGGSDSSDLLQREAILANELNILDNLKTFLNLIKEVKTNLNILELENCYYSLQSLRKKMRNNAAYLKQSFNFQQSISTYVDTLHLELVSTLYKILTNGFWKITENSIQFTPTVEWGKDKVHIEYDTFMDFVAQQYFPKGSLDNQAWFILDMTSADSQEQVRAKLNTIMKEYMNLSRIVSMIKNSIFISGKEISYENEKNILVFSKSSSHGQHCVSTVLTSFEAVCDFMLDGLAFRDRKTLSYELGPLFNTEFTKFVKNNASIILESLDSPLKNLVSVINNKLTRLVAKSEVTNWTHSGKEIQDLLMN	soluble
GASKAFYSAGDKLFQPGDDAVASMQTYSVAQFLQPFTLNPAKASSDYLGKWVKVRGVIVDIRRKSGIAGSYYFIVTMRDEQNKTDKRLTFNFGSHNSADVEALSNGSVATIVGQVHQVQDSTIPTLQNPKVVK	soluble
GAVGLTIRSNITYSKNEIVDRDEENNYYWYKMQKGHRVNQARGLISLGLFKDYDDIRNSPVQDFDGYKVMPGDIKYKDVNGDGKIDGNDQVAIGATTKPNLIYGFGIAANWKGLDVNLHFQGAGKSTYFIDGSTVHMFKLGDGWGNVLSEMANSNRWISADISGDPATENPNAEYPRLSYGPNSNNYQQSTYWLRNGSYLRLKTVEVGYTLPTQLVNKVHFNTVRIFFVGTNLLTWSAFKLWDPEMGSTDGKRYPLSKNLSLGISVNL	not soluble
GDFSWNSSLTYTMNRNKVKRLASGATNPITGEIIDMPELRMAVLGADGYGPRVILREGGTMGDLYVDKGLRTDGNGNIWVDSQTGKVGVQDYAEPKKIGTMNPDFNMGFSNTFSYKGINLGVVLTARVGGLCVSNTQGILDYYGVSKATADARDAGGVWINNGFVDAKSYYQTIGGSTGGLGQYYTYSATNIRLSELNLSYTLPRKWFNNKVGITAGIVGKNLWMIYCKAPFDPEMTPSTTSNFYQGVDYFMQPSTRNIGFNVKFQF	not soluble
GEFAQECQNLEVERQRRLERIKQKQSQLQELILQQIAFKNLVQRNRHAEQQASRPPPPNSVIHLPFIIVNTSKKTVIDCSISNDKFEYLFNFDNTFEIHDDIEVLKRMGMACGLESGSCSAEDLKMARSLVPKALEPYVTEMAQGTVGGVFITTA	soluble
GEIYDEHDEVEAVQTLDNNTWLVLPNVKAAFFFNKWIKRDLVKSKNMTIQRYLASFENDGLNTQNKLETPWFIAEAIVDSENPEQIRYEIRKKSDVVD	soluble
GELFIKELLWMLRHQKDIFNNLARQFQKEVLCPNKCGVMSQTLIWCLKCEKQLHICRKSLDCGERHIEVHRSEDLVLDCLLSWHRASKGLTDYSFYRVWENSSETLIAKGKEPYLTKSMVGPEDAGNYRCVLDTINQGHATVIRYDVTVLPPKHSEENQPP	not soluble
GERLTIEDGLYLYETSDLLGVAQLANKVNSEKNGDHVYFIENMYINPTNVCEANCSFCGFKRKPGQEGAYTMDSETLLRYVEERWNDNIREFHIVGGHNTDVPFDYYLDTIRTLKKNFPQVTVKAYTGAEIEFFSRLAGISMKEVLEELIKAGLDTLPGGGAEILTERYRAKMSPDKASTDQWLEAHEIAHGLGLKTHATMLYGSIESNEERLIHMDRVRQLQDKTNGYMVFIPLAMQPRSVKAGLKRRTSAFDDMRTIAISRLMLDNIDHIKAYWINIGVQLTQMALTFGSDDIHGTLIEERISHSVGALTSQGITRDELIHLIKSANKTPVER	not soluble
GFPERELPRPGASRPAEKSRPPEAKGAQPADAWKAGRPRSEEDNELNLPNLAAAYSSILRSLGEDPQRQGLLKTPWRAATAMQFFTKGYQETISDVLNDAIFDEDHDEMVIVKDIDMFSMCEHHLVPFVGRVHIGYLPNKQVLGLSKLARIVEIYSRRLQVQERLTKQIAVAITEALQPAGVGVVIEATHMCMVMRGVQKMNSKTVTSTMLGVFREDPKTREEFLTLIRS	soluble
GGSVKKGRRSRRCGQCPGCQVPEDCGVCTNCLDKPKFGGRNIKKQCCKMRKCQNLQWMPSKAYLQKQAKAVK	soluble
GGVIATQMTYKVYMSGTVNGHYFEVEGDGKGRPYEGEQTVKLTVTKGGPLPFAWDILSPQCQYGSIPFTKYPEDIPDYVKQSFPEGFTWERIMNFEDGAVCTVSNDSSIQGNCFTYHVKFSGLNFPPNGPVMQKKTQGWEPSSERLFARGGMLIGNNFMALKLEGGGHYLCEFKTTYKAKKPVKMPGYHYVDRKLDVTNHNKDYTSVEQCEISIARKPVVA	soluble
GHMEELNIDFDVFKKRIELLYSKYNEFEGSPNSLLFVLGSSNAENPYQKTTILHNWLLSYEFPATLIALVPGKVIIITSSAKAKHLQKAIDLFKDPESKITLELWQRNNKEPELNKKLFDDVIALINSAGKTVGIPEKDSYQGKFMTEWNPVWEAAVKENEFNVIDISLGLSKVWEVKDVNEQAFLSVSSKGSDKFMDLLSNEMVRAVDEELKITNAKLSDKIENKIDDVKFLKQLSPDLSALCPPNYKFNFDLLDWTYSPIIQSGKKFDLRVSARSTNDQLYGNGCILASCGIRYNNYCSNITRTFLIDPSEEMANNYDFLLTLQKEIVTNILKPGRTPKEVYESVIEYIEKTKPELVPNFTKNIGSLIGLEFRDSNFILNVKNDYRKIQRGDCFNISFGFNNLKDSQSANNYALQLADTVQIPLDETEPPRFLTNYTKAKSQISFYFNNEEEDNNKKKSSPATKV	soluble
GHMVTMSTEPVSASDKYQKISQLEHILKRPDTYIGSVETQEQLQWIYDEETDCMIEKNVTIVPGLFKIFDEILVNAADNKVRDPSMKRIDVNIHAEEHTIEVKNDGKGIPIEIHNKENIYIPEMIFGHLLTSSNYDDDEKKVTGGRNGYGAKLCNIFSTEFILETADLNVGQKYVQKWENNMSICHPPKITSYKKGPSYTKVTFKPDLTRFGMKELDNDILGVMRRRVYDINGSVRDINVYLNGKSLKIRNFKNYVELYLKSLEKKRQLDNGEDGAAKSDIPTILYERINNRWEVAFAVSDISFQQISFVNSIATTMGGTHVNYITDQIVKKISEILKKKKKKSVKSFQIKNNMFIFINCLIENPAFTSQTKEQLTTRVKDFGSRCEIPLEYINKIMKTDLATRMFEIADANEENALK	soluble
GIDPFTMAKKDGAIEVEGRVVEPLPNAMFRIELENGHKVLAHISGKMRQHYIRILPEDRVVVELSPYDLSRGRIVYRYK	soluble
GIVMTQTPASQSASLGESVTITCLASQTIGTWLAWYQQKPGKSPQLLIYAATSLADGVPSRFSGSGSGTKFSFKISSLQAEDFVSYYCQQLSSTPYTFGGGTKLEIKRADAAPTVSIFPPSSEQLTSGGASVVCFLNNFYPKDINVKWKIDGKERQNGVLNSWTDQDSKDSTYSMSSTLTLTKDEYERHNSYTCEATHKTSTSPIVKSFNRNE	soluble
